# T1: Human GPA33 (Novoprotein), recombinant protein immobilized on CM5 chips (human, UniProt Q99795 22-235)
# T1 construct: also called GPA33 recombinant protein; Human Glycoprotein A33
# T1 sequence: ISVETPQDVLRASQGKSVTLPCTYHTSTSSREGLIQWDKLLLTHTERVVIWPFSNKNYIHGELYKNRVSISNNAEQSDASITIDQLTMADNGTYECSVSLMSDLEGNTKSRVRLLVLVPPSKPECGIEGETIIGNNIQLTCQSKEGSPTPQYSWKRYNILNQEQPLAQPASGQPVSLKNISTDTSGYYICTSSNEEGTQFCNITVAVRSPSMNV
# T2: GPA33 on the surface of human colon and gastric cancer cell lines (human, UniProt Q99795 22-319)
# T2 sequence (looked up): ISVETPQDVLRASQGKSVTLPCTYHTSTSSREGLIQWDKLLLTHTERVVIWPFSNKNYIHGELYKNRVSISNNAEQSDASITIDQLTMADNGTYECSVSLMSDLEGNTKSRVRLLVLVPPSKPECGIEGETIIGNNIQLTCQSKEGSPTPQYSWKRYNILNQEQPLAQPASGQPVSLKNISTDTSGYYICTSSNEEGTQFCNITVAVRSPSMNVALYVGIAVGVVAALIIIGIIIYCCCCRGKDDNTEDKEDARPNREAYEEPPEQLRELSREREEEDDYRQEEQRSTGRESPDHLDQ
# B1: huA33-IgG1 (H2L2) (antibody, V domains shown)
# VH: EVQLVESGGGLVKPGGSLRLSCAASGFAFSTYDMSWVRQAPGKRLEWVATISSGGSYTYYLDSVKGRFTISRDNAKNSLYLQMNSLRAEDTAVYYCAPTTVVPFAYWGQGTLVTVSS
# VL: DIQMTQSQSSLSTSVGDRVTITCKASQNVRTVVAWYQQKPGKSPKTLIYLASNRHTGVPSRFSGSGSGTEFTLTISNVQPEDFADYFCLQHWSYPLTFGSGTKLEIKR
# notes: Humanized A33 IgG1, version H2L2; also called 3A3-H2L2; 3A3-H2/L2
# B2: huA33-BsAb (bispecific antibody, human IgG1, kappa, N297A)
# heavy: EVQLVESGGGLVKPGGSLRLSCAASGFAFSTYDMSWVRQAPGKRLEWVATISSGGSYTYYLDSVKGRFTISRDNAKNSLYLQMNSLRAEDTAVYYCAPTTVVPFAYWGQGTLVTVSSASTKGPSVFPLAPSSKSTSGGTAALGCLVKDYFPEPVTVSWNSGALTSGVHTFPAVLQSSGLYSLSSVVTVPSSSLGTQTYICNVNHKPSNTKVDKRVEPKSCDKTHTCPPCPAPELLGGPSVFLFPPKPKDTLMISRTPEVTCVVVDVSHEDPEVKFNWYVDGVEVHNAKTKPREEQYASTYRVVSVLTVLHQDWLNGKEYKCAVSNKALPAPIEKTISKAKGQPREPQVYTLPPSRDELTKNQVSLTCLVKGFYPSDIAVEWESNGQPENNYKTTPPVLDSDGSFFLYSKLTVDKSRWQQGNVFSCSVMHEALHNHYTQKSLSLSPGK
# light: DIQMTQSQSSLSTSVGDRVTITCKASQNVRTVVAWYQQKPGKSPKTLIYLASNRHTGVPSRFSGSGSGTEFTLTISNVQPEDFADYFCLQHWSYPLTFGSGTKLEIKRTVAAPSVFIFPPSDEQLKSGTASVVCLLNNFYPREAKVQWKVDNALQSGNSQESVTEQDSKDSTYSLSSTLTLSKADYEKHKVYACEVTHQGLSSPVTKSFNRGECTSGGGGSGGGGSGGGGSQVQLVQSGGGVVQPGRSLRLSCKASGYTFTRYTMHWVRQAPGKCLEWIGYINPSRGYTNYNQKFKDRFTISRDNSKNTAFLQMDSLRPEDTGVYFCARYYDDHYSLDYWGQGTPVTVSSGGGGSGGGGSGGGGSGGGGSGGGGSGGGGSDIQMTQSPSSLSASVGDRVTITCSASSSVSYMNWYQQTPGKAPKRWIYDTSKLASGVPSRFSGSGSGTDYTFTISSLQPEDIATYYCQQWSSNPFTFGCGTKLQITR
# notes: huA33 (H2L2) IgG1 with the humanized OKT3 scFv fused to the C-terminus of the light chain via a (G4S)3 linker; also called T-cell engaging huA33-BsAb; humanized A33-bispecific antibody
# Key:
# [1] = biological target: T1, Human GPA33 (Novoprotein), recombinant …; assay: SPR (Biacore T100), GPA33 recombinant protein immobilized on CM5 chip, antibody flowed over
# [2] = biological target: T1, Human GPA33 (Novoprotein), recombinant …; assay: SPR (Biacore T100), GPA33 immobilized on CM5 chip, antibody flowed, 1:1 model; parental huA33 IgG, not the bispecific
# Experimental: (§1) SPR analysis. Human GPA33 (Novoprotein, Summit, N.J.) was immobilized on CM5 chips. Five concentrations of 2-fold serially diluted huA33 IgG1 or huA33-BsAbs (starting at 20 nM) were flowed over the chip using a Biacore™ T100 system (GE Healthcare, Chicago, Ill.). Binding kinetics of huA33 were measured at 25° C. and binding kinetics of huA33-BsAbs were measured at both 25° C. and 37° C. The sensorgrams were fitted with 1:1 binding model for both to derive kinetic parameters.
# [3] = biological target: T1, Human GPA33 (Novoprotein), recombinant …; assay: SPR (Biacore T100), GPA33 recombinant protein immobilized on CM5 chip, IgG1 flowed over, 25 °C, 1:1 binding model
# Experimental: as §1
# [4] = biological target: T2, GPA33 on the surface of human colon and …; assay: cell-based or functional assay
# [5] = biological target: T1, Human GPA33 (Novoprotein), recombinant …; assay: SPR, parental huA33-BsAb, the reference of the column
# [6] = biological target: T2, GPA33 on the surface of human colon and …; assay: FACS staining of SW1222 colon cancer cells with titrated huA33-BsAb, geometric mean MFI [contd.) D]
# [7] = biological target: T1, Human GPA33 (Novoprotein), recombinant …; assay: SPR (Biacore T100), human GPA33 immobilized on CM5 chip, huA33-BsAb flowed over, 25 °C, 1:1 binding model [contd.) C]
# Experimental: as §1
# [8] = biological target: T1, Human GPA33 (Novoprotein), recombinant …; assay: SPR (Biacore T100), human GPA33 immobilized on CM5 chip, huA33-BsAb flowed over, 37 °C, 1:1 binding model [contd.) C]
# Experimental: as §1
# [9] = biological target: T1, Human GPA33 (Novoprotein), recombinant …; assay: SPR, GPA33 immobilized on CM5 chip, parental huA33-BsAb; temperature not given for this table; the KD column head prints no unit
# Experimental: as §1
# [10] = biological target: T1, Human GPA33 (Novoprotein), recombinant …; assay: SPR (Biacore T100), GPA33 immobilized on CM5 chip, antibody flowed, 1:1 model; measured at 25 C and 37 C; bispecific huA33-BsAb; GPA33 immobilized on CM5 chip; apparent affinity (avidity)
# Experimental: as §1
# [11] = biological target: T1, Human GPA33 (Novoprotein), recombinant …; assay: SPR (Biacore T100), human GPA33 immobilized on CM5 chip, huA33-BsAb flowed over, 25 °C, 1:1 binding model; the KD column head prints no unit, M follows from the ka and kd units [contd.) C]
# Experimental: as §1
# [12] = biological target: T1, Human GPA33 (Novoprotein), recombinant …; assay: SPR (Biacore T100), human GPA33 immobilized on CM5 chip, huA33-BsAb flowed over, 37 °C, 1:1 binding model; the KD column head prints no unit, M follows from the ka and kd units [contd.) C]
# Experimental: as §1
Binder,Kd [1] [nM],koff [1] [s⁻¹],kon [1] [M⁻¹ s⁻¹],Kd [2] [nM],Kd [3] [nM],koff [3] [s⁻¹],kon [3] [M⁻¹ s⁻¹],"EC50 of T-cell dependent cytotoxicity against Colo205 cells (sorted fresh CD4 memory T cells, E:T=5:1, 48 hours, LDH assay) [4] [nM]",Fold difference/Parental [5] [fold],EC50 (read off the curve) [6] [µg],koff [7] [s⁻¹],kon [7] [M⁻¹ s⁻¹],koff [8] [s⁻¹],kon [8] [M⁻¹ s⁻¹],Kd [9] [nM],Kd [10] [nM],Kd [11] [nM],Kd [12] [nM]
B1,0.169,0.000363,2.15e+06,0.13,0.169,0.000363,2.15e+06,,,,,,,,,,,
B2,,,,,,,,0.025,1,~0.3,0.000478,2.25e+06,0.00167,6.81e+06,0.168,~0.2,0.212,0.245
